Results as given in patent publication US20230303694A1 (LAVA THERAPEUTICS N V, published 2023).

B1: bispecific VHH 7D12var8-5C8var1-Y105F (bispecific antibody)
chain: EVQLVESGGGSVQPGGSLRLSCAASGRTSRSYGMGWFRQAPGKEREFVSGISWRGDSTGYADSVKGRFTISRDNAKNTVDLQMNSLRAEDTAVYYCAAAAGSAWYGTLYEYDYWGQGTLVTVSSGGGGSEVQLLESGGGSVQPGGSLRLSCAASGRPFSNYAMSWFRQAPGKEREFVSAISWSGGSTSYADSVKGRFTISRDNSKNTLYLQMNSLRAEDTAVYYCAAQFSGADFGFGRLGIRGYEYDYWGQGTQVTVSS
B2: 7D12var8-5C8var1(Y105F)-Fc (bispecific antibody, V domains shown)
V domain 1: EVQLVESGGGSVQPGGSLRLSCAASGRTSRSYGMGWFRQAPGKEREFVSGISWRGDSTGYADSVKGRFTISRDNAKNTVDLQMNSLRAEDTAVYYCAAAAGSAWYGTLYEYDYWGQGTLVTVSS
V domain 2: EVQLLESGGGSVQPGGSLRLSCAASGRPFSNYAMSWFRQAPGKEREFVSAISWSGGSTSYADSVKGRFTISRDNSKNTLYLQMNSLRAEDTAVYYCAAQFSGADFGFGRLGIRGYEYDYWGQGTQVTVSS
notes: Heterodimer of two VHH-Fc chains: the anti-EGFR 7D12var8-Fc (hole) and the anti-Vδ2 5C8var1(Y105F)-Fc (knob); The Fc is human IgG1 with L234F/L235E and a modified hinge; also called 7D12var8-5C8var1(Y105F) with Fc region

Key:
[1] = target: T1, epidermal growth factor receptor (EGFR) on EGFR-expressing tumor cell lines A-431, HCT-116 and HT-29 (human, UniProt P00533 25-1210); test: cell-based or functional assay
[2] = target: human Vγ9Vδ2 T cell receptor (TCR) on primary Vγ9Vδ2 T cells (human), Q99603; test: cell-based or functional assay
[3] = target: T1, epidermal growth factor receptor (EGFR) …; test: cell-based ELISA on A-431 cells, anti-IgG1-HRP, signal at 450 nm
Description: To this end, tumor cells were first seeded at different concentrations on day −1 to reach a concentration of approximately 50000 cells/well on day 0. […] Bound antibodies were then labelled in a secondary incubation step with anti-IgG1-HRP for one hour at 37° C. The secondary antibody binding was then resolved by the addition of 3,3′,5,5′-Tetramethylbenzidine and the colorimetric change induced by the HRP, followed by the addition of H2SO4 to stop the reaction. The optical density (OD) was then measured in a UV spectrometer at a wavelength of 450 nm.

| Binder | EC50 cytotoxicity (A431 tumor cell kill, 24 h, with Vγ9Vδ2 T cells) [1] [pM] | EC50 degranulation (CD107A+ Vγ9Vδ2 T cells, 4 h, with A431 cells) [2] [pM] | EC50 (read off the curve) [3] [nM] |
| --- | --- | --- | --- |
| B1 | 2.5 | 11 |  |
| B2 |  |  | ~2 |
